Data reported in paper PMC10640585, “The E3 ligase Riplet promotes RIG-I signaling independent of RIG-I oligomerization” (Nature Communications, 2023).

How the values were obtained:
[1] = target: T1, biotinylated Avi-tagged RIG-I (human, UniProt O95786 1-925, biotin on the Avi tag (by BirA)); experiment: SPR; biotinylated RIG-I pre-incubated with p3dsRNA24 (2.4:1, 4 °C overnight; two RIG-I on one RNA) immobilised on streptavidin SADH chip; Riplet constructs 0.125-10 µM in HBS-EP+, 50 µl/min, dissociation 180 s, OneStep mode, 1:1 model; settings: both partners purified
T1 construct: RIG-I (Retinoic acid inducible gene-I), human, full-length; Immobilised on the SPR chip as apo protein or pre-incubated with p3SLR14 (1:1.5) or p3dsRNA24 (2.4:1; two RIG-I on one RNA); also called Avi-RIG-I; biotinylated RIG-I; source: E. coli Rosetta 2(DE3), purified (Ni-NTA, ULP1, heparin, size exclusion), biotinylated by BirA, size exclusion; not shown: 6xHis, N-terminal, cleaved; SUMO, …
T1 sequence (looked up): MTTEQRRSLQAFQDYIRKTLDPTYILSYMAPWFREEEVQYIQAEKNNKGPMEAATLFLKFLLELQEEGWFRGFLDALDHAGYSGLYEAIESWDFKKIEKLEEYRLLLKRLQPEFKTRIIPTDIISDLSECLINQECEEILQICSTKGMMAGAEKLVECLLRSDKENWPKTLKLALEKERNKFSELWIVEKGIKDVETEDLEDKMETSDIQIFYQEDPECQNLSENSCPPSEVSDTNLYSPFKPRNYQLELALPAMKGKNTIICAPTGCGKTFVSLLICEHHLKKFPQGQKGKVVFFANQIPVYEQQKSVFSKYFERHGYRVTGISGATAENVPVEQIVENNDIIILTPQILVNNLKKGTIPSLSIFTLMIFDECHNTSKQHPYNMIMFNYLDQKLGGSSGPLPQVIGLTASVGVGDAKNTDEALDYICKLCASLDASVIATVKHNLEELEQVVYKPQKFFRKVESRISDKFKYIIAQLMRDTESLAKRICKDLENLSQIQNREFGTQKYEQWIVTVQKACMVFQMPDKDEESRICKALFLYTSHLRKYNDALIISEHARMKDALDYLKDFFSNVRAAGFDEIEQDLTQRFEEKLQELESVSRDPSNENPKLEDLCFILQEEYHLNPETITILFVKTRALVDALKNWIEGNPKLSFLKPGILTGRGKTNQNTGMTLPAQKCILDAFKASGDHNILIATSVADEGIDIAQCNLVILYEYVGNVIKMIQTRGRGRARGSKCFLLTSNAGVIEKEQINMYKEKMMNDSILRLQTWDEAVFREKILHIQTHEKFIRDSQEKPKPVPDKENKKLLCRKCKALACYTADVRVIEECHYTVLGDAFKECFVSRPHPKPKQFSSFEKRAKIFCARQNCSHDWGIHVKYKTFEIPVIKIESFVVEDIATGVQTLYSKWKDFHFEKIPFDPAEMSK

[2] = target: T1, biotinylated Avi-tagged RIG-I; experiment: SPR; apo biotinylated RIG-I immobilised on streptavidin SADH chip; Riplet constructs 0.125-10 µM in HBS-EP+, 50 µl/min, dissociation 180 s, OneStep mode, 1:1 model; settings: both partners purified
[3] = target: T1, biotinylated Avi-tagged RIG-I; experiment: SPR; biotinylated RIG-I pre-incubated with p3SLR14 (1:1.5, 4 °C overnight) immobilised on streptavidin SADH chip; Riplet constructs 0.125-10 µM in HBS-EP+, 50 µl/min, dissociation 180 s, OneStep mode, 1:1 model; settings: both partners purified
[4] = target: T2, RIG-I;Riplet (human;human, UniProt O95786;Q8IUD6 1-925;1-432, |); experiment: cryo-EM; end-end complex, 2 RIG-I:1 RNA:1 Riplet dimer, 3.2 A; EMSA: RNA + RIG-I 30 min RT, then Riplet 30 min RT, 6% native PAGE, GelRed; protein storage buffer 25 mM HEPES pH 7.4, 200 mM NaCl, 5% glycerol, 5 mM BME (bindi); settings: protein: recombinant;recombinant, tags: N-terminal 6xHis-SUMO, removed by ULP1;N-terminal 6xHis-SUMO, chain copies: 2;2, blunt
T2 sequence 1: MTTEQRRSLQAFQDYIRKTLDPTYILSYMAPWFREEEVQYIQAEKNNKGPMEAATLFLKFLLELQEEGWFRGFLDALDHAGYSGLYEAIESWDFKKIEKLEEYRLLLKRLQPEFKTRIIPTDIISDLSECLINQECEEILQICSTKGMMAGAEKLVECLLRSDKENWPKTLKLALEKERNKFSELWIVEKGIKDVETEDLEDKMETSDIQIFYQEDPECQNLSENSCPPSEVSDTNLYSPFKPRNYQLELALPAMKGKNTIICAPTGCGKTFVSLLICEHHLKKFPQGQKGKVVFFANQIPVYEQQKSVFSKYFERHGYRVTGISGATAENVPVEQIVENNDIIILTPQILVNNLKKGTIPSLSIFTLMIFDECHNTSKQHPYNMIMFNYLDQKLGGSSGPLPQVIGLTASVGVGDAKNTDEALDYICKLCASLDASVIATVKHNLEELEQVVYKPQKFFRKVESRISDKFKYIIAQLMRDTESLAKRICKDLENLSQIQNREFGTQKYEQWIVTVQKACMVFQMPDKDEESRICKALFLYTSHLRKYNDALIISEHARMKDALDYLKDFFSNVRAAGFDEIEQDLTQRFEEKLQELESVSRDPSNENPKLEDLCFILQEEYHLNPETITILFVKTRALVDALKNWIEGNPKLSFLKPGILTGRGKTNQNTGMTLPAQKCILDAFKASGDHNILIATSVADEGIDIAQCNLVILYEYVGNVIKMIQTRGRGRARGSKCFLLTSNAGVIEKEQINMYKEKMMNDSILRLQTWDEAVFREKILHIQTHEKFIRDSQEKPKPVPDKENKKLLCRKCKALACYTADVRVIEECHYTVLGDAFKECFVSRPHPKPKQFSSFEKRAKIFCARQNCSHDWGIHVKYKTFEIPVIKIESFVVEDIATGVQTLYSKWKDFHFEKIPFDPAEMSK
T2 sequence 2: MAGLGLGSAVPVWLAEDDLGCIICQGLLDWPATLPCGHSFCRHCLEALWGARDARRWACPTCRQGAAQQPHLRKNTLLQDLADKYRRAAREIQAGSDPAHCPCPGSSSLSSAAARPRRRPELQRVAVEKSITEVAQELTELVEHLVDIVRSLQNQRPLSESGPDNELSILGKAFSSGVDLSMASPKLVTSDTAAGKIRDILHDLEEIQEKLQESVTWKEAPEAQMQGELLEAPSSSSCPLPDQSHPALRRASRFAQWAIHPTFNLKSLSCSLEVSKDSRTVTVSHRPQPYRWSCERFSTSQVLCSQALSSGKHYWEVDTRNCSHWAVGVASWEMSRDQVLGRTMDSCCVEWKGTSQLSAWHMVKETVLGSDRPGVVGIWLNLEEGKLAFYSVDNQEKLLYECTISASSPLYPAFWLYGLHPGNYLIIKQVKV

B1: Riplet, full-length (Riplet-FL) (enzyme, human, UniProt Q8IUD6 1-432, looked up)
chain: MAGLGLGSAVPVWLAEDDLGCIICQGLLDWPATLPCGHSFCRHCLEALWGARDARRWACPTCRQGAAQQPHLRKNTLLQDLADKYRRAAREIQAGSDPAHCPCPGSSSLSSAAARPRRRPELQRVAVEKSITEVAQELTELVEHLVDIVRSLQNQRPLSESGPDNELSILGKAFSSGVDLSMASPKLVTSDTAAGKIRDILHDLEEIQEKLQESVTWKEAPEAQMQGELLEAPSSSSCPLPDQSHPALRRASRFAQWAIHPTFNLKSLSCSLEVSKDSRTVTVSHRPQPYRWSCERFSTSQVLCSQALSSGKHYWEVDTRNCSHWAVGVASWEMSRDQVLGRTMDSCCVEWKGTSQLSAWHMVKETVLGSDRPGVVGIWLNLEEGKLAFYSVDNQEKLLYECTISASSPLYPAFWLYGLHPGNYLIIKQVKV
notes: Only the PrySpry domain is resolved in the cryo-EM maps; also called Riplet WT; E3 ligase Riplet; source: E. coli Rosetta 2(DE3), purified (Ni-NTA, ULP1 digestion, size exclusion); not shown: 6xHis, N-terminal, cleaved; SUMO, N-terminal, cleaved
[1]
  Kd: 6.6 nM
[2]
  Kd: 700 nM

B2: Riplet-ΔRING (94-432) (domain or fragment, human, UniProt Q8IUD6 94-432, looked up)
chain: AGSDPAHCPCPGSSSLSSAAARPRRRPELQRVAVEKSITEVAQELTELVEHLVDIVRSLQNQRPLSESGPDNELSILGKAFSSGVDLSMASPKLVTSDTAAGKIRDILHDLEEIQEKLQESVTWKEAPEAQMQGELLEAPSSSSCPLPDQSHPALRRASRFAQWAIHPTFNLKSLSCSLEVSKDSRTVTVSHRPQPYRWSCERFSTSQVLCSQALSSGKHYWEVDTRNCSHWAVGVASWEMSRDQVLGRTMDSCCVEWKGTSQLSAWHMVKETVLGSDRPGVVGIWLNLEEGKLAFYSVDNQEKLLYECTISASSPLYPAFWLYGLHPGNYLIIKQVKV
notes: Riplet, human, residues 94-432 (RING domain deleted; CC and PrySpry domains kept); pET-SUMO-Riplet-ΔRING(94-432); the PDB entries are of the full-length parent; source: E. coli Rosetta 2(DE3), purified (Ni-NTA, ULP1 digestion, size exclusion); not shown: 6xHis, N-terminal, cleaved; SUMO, N-terminal, cleaved
[1]
  Kd: 10 nM
[3]
  Kd: 700 to 1200 nM

B3: Riplet-PrySpry (249-432) (domain or fragment, human, UniProt Q8IUD6 249-432, looked up)
chain: RRASRFAQWAIHPTFNLKSLSCSLEVSKDSRTVTVSHRPQPYRWSCERFSTSQVLCSQALSSGKHYWEVDTRNCSHWAVGVASWEMSRDQVLGRTMDSCCVEWKGTSQLSAWHMVKETVLGSDRPGVVGIWLNLEEGKLAFYSVDNQEKLLYECTISASSPLYPAFWLYGLHPGNYLIIKQVKV
notes: Riplet, human, PrySpry domain, residues 249-432 (RING and CC domains deleted); pET-SUMO-Riplet-PrySpry(249-432); the PDB entries are of the full-length parent; also called PrySpry domain alone; source: E. coli Rosetta 2(DE3), purified (Ni-NTA, ULP1 digestion, size exclusion); not shown: 6xHis, N-terminal, cleaved; SUMO, N-terminal, cleaved
[1]
  Kd: 1400 nM

B4: p3dsRNA24 (dsRNA)
RNA 1: GGACGUACGUUUCGCGACUGUAGA
RNA 2: UCUACAGUCGCGAAACGUACGUCC
modifications: 5'-triphosphate on both strands
[4]
  binding result: binds
